Test results from US20250281630A1 (TORAY INDUSTRIES, published 2025).

B1: Conjugate 95 (antibody, V domains shown)
VH: AVTLDESGGGLQTPGGALSLVCKASGFTFSGYDMLWVRQAPGKGLEWVAGIGSTGGGTDYGAAVKGRATISRDNGQSTVRLQLNNLRAEDTATYYCAKVAGGCNSGYCRDSPGSIDAWGHGTEVIVS
VL: AVTQQPASVSANPGETVKITCSGGGSRNYYGWYQQKSPGSVPVTVIYYDDQRPSNIPSRFSGALSGSTSTLTITGVQADDEAVYFCGSADSNTYEGSFGAGTTLTVL
notes: human IgG1 constant regions; also called conjugate with MMAE using humanized antibody #9
B2: Conjugate 99 (antibody, V domains shown)
VH: GAELVRSGASVKMSCKASGYSFTDYNMYWVKQTPGQGLEWIGYIYPGNGGTNYNQKFKGKATLTADTSSSTAYMQISSLTSEDSAVYFCARDYDDGGYAMDYWGQGTTVTVSS
VL: DIQMTQSPASLSASVGETVTITCRASGNIHNYLTWYQQKQGKSPQLLVYNAKTLADGVPSRFSGSGSGTQYSLKINRLQPEDFGSYYCQHFWNIPWTFGGGTKLNSR
notes: human IgG1 constant regions; also called conjugate with MMAE using humanized antibody #13
B3: Conjugate 100 (antibody, V domains shown)
VH: DAELVKPGASVKISCKASGYTFTDHSIHWVQQKPEQGLEWIGYISPGNGNIKYNEKFKGKATLTADKSSSTAYMQLNSLTSEDSAVYFCKRSLGRGGPYYFDYWGQGTTVTVSS
VL: DIVLTQAAPSLPVTPGESVSISCRSSKSLLHSNGNTYLYWFLQRPGQSPQLLIYRMSNLASGVPDRFSGSGSGTAFTLRISRVEAEDVGVYYCMQHREYPVTFGSGPN
notes: human IgG1 constant regions; also called conjugate with MMAE using humanized antibody #14
B4: Conjugate 122 (antibody, V domains shown)
VH: EVQLVESGGGLVQPGGSLRLSCAASGFSLSSHSLGWVRQAPGKGLEWIGDIRSGGSAYYANWAKGRFTISRDNSKNTLYLQMNSLRAEDTAVYYCTRTNGPSDLTNRLDLWGQGTLVTVSS
VL: QVLTQSPSSLSASVGDRVTINCQASQSLYNNENLAWFQQKPGKVPKRLIYGASTLASGVSSRFSGSGSGTEFTLTISSLQCEDFAIYYCLGEFSCGSADCFAFGGGTKVEIK
notes: human IgG1 constant regions; also called conjugate with MMAE using humanized antibody #36
B5: Conjugate 124 (antibody, V domains shown)
VH: B4 VH
VL: EQVLTQSPSSLSASVGDRVTINCQASQSLYNNENLAWFQQKPGKVPKRLIYGASTLASGVSSRFSGSGSGTEFTLTISNLQPEDFAIYYCLGEFSCGSADCFAFGGGTKVEIK
notes: human IgG1 constant regions; also called conjugate with MMAE using humanized antibody #38

Biological target: T1, mouse CAPRIN-1 on mouse cancer cells (mouse, UniProt Q60865 2-707)
T1 construct: whole, on cells
T1 sequence (looked up): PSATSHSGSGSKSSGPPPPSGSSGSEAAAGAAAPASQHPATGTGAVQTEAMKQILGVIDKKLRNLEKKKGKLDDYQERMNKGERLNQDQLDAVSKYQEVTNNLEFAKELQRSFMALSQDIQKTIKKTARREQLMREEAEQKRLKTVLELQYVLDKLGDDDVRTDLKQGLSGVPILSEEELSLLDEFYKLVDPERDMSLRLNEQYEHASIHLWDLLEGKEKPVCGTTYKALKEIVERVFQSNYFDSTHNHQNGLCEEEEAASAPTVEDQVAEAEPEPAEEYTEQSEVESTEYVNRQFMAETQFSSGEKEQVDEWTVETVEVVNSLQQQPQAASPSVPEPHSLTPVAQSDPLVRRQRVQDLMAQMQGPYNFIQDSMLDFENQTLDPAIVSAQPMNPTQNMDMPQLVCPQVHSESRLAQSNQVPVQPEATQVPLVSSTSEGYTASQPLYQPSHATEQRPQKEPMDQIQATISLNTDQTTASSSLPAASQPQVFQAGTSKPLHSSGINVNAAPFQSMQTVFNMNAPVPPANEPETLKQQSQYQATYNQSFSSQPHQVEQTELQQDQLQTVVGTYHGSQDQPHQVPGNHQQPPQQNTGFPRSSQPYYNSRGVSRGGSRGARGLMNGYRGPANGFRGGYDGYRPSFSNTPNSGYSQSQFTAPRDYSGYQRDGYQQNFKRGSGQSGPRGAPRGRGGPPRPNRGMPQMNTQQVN
Assay: flow cytometry, Renca and 4T1 cells

Row | Binder | binding result
1 | B1 | binds
2 | B2 | binds
3 | B3 | binds
4 | B4 | binds
5 | B5 | binds

Biological target: T2, human CAPRIN-1 on the cell membrane surface of human cancer cells (human, UniProt Q14444 2-709)
T2 construct: whole, on cells
T2 sequence (looked up): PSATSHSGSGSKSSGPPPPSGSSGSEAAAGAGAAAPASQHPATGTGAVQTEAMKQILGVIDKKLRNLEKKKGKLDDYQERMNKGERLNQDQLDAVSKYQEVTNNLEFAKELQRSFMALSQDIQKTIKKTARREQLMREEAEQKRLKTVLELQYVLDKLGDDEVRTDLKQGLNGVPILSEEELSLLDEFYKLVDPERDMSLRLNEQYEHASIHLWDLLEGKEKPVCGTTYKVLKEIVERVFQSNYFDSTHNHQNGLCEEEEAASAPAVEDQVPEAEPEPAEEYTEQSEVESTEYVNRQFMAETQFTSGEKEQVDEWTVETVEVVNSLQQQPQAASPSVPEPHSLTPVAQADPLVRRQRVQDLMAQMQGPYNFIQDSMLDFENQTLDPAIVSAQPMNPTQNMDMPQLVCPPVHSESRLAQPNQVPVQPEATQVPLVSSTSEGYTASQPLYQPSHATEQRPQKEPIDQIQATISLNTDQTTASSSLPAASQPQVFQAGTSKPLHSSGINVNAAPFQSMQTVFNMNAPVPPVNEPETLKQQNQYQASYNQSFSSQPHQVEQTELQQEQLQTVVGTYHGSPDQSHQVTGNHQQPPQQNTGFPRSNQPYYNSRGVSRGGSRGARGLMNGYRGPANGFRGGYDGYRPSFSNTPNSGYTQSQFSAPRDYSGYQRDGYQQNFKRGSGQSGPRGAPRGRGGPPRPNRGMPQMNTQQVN
Assay: flow cytometry, BT474 cells
Experimental: The tube was left at 4° C. for 1 hour. After washing with PBS, Alexa 488-labeled anti-rabbit IgG (H+L) diluted 100-fold with PBS(-) containing 0.5% FBS (0.5% FBS-PBS(-)) was added thereto, and the tube was left at 4° C. for 1 hour. After washing with 0.5% FBS-PBS(-), the cells were reacted with BD Horizon Fixable Viability Stain (FVS) Reagents (FVS450, Becton, Dickinson and Company) to stain dead cells, and the fluorescence intensity was then measured using FACSFortessa™ (Becton, Dickinson and Company).

Row | Binder | binding result
6 | B1 | binds
7 | B2 | binds
8 | B3 | binds
9 | B4 | binds
10 | B5 | binds
